Measured values published in US20100261660A1.

B1: Round 2 CD28A12-5 (ligand)
chain: ITPKSVTKRVKETVMLSCDYNTSTEELTSLRIYWRKDSKMXLAILPGKVQVWPEYKNRTITDMNDNLRIVILALRLSDSGTYTCVIQKPDLKGAYKLEHLTSVRLMIRADFPVPTINDLGNPSPNIRRLICSTSGGFPRPHLYWLENGEELNATNTTVSQDPGTELYMISSELDFNVTNNHSIVCLIKYGELLVSQIFPWSKPKQEPPIDQLPFWVIIPVSGALVLTAVVLYCLACRHVARWKRTRRNEETVGTERLSPIYLGSAQSSG
modifications: not fully specified; X: residue not identified in the source; ends and bridges not checked; also: glycosylated membrane protein, sites not given here
B2: Round 2 CD28A4-9 (ligand)
chain: ITPKSVTKRVKETVMLSCDYNTSTEKLTSLRIYWQKDSKMVLAILPGKVQVWPEYKNRTITDMNDNPRIVILALRLSDSGTYTCVIQKPVLKGAYKLEHLTSVRLMIRADFPVPTINDLGNPSPNIRRLICSTSGGFPRPHLYWLENGEELNATNTTVSQDPETKLYMISSELDFNVTNNHSIVCLIKYGELSVSQIFPWSKPKQEPPIDQLPFWVIIPVSGALVLTAVVLYCPACRHVARWKRTRRNEETVGTERLSPIYLGSAQSRAEVPSLSX
modifications: not fully specified; X: residue not identified in the source; ends and bridges not checked

Target: Soluble CD28-Ig (extracellular domain of human CD28 fused to the Fc portion of human IgG1) (human), P10747
Assay: competitive FACS on transfected cells, biotin-sCD28-Ig with FITC-sCTLA-4-Ig; grade 0-2 of CD28/CTLA-4 ratio vs WT hB7-1

Row | Binder | Binding Score
1 | B1 | 1
2 | B2 | 1
